B1: PP1109 MBP-5HVZ-PAPA-RN-25-H6 (VHH)
VHH: QVQLVESGGGLVQPGGSLRLSCAASGEDYSYNAAHWFRQAPGKEREWVAAINSGGGTYYADSVKGRFTISRDNAKNTVYLQMNSLKPEDTAVYYCAYLGALDRDGYDAWGQGTQVTVSS
notes: Form: Dimer
B2: PP1110 MBP-5HVZ-PAPA-RN-26-H6 (VHH)
VHH: QVQLVESGGGLVQPGGSLRLSCAASGSISSINSMHWYRQAPGKEREWVAAVSSYGSDYYADSVKGRFTISRDNAKNTVYLQMNSLKPEDTAVYYCAARTVTGFTYGDYWGQGTQVTVSS
notes: Form: Dimer
B3: PP1111 MBP-5HVZ-PAPA-RN-27-H6 (VHH)
VHH: QVQLVESGGGLVQPGGSLRLSCAASGPQFSSNAVSWFRQAPGKEREWVAGITSGGSTDYADSVKGRFTISRDNAKNTVYLQMNSLKPEDTAVYYCTAPSVSDADRRTRDYWGQGTQVTVSS
notes: Form: Dimer
B4: PP1112 MBP-5HVZ-PAPA-RN-28-H6 (VHH)
VHH: QVQLVESGGGLVQPGGSLRLSCAASGSQFSHNLMSWFRQAPGKQREFVAAITSFGSTGYADSVKGRFTISRDNAKNTVYLQMNSLKPEDTAVYYCAALSSEDTSHYPRNYWGQGTQVTVSS
notes: Form: Dimer
B5: PP1176 MBP-5HVZ-PAPA-R2a-F3-H6 (VHH)
VHH: QVQLVESGGGLVQPGGSLRLSCAASGSITSINWMHWFRQAPGKDREGVASISQTGRGSYADSVKGRFTISRDNAKNTVYLQMNSLKPEDTAVYYCAAASRTGTPYNYWGQGTQVTVSS
notes: Form: Dimer
B6: PP1160 MPB-scTRP-PAPA-R5a-C5-H6 (VHH)
VHH: QVQLVESGGGLVQPGGSLRLSCAASGDIFSINALHWFRQAPGKQREEVAAITSGGSTGYADSVKGRFTISRDNAKNTVYLQMNSLKPEDTAVYYCAAQQARGGLDSDYWGQGTQVTVSS
notes: Form: Trimer
B7: PP906 MBP-5HVZ-S1b-E7-H6 (VHH)
VHH: QVQLVESGGGLVQPGGSLRLSCAASGGEFSDNGLHWFRQAPGKQREFVATASSDGSTQYRDSVKGRFTISRDNAKNTVYLQMNSLKPEDTAVYYCTALLMSSAGEYDVWGQGTQVTVSS
notes: Form: Dimer
B8: PP912 MBP-5HVZ-S2b-G8-H6 (VHH)
VHH: QVQLVESGGGLVQPGGSLRLSCAASGSIQSYEAMHWFRQAPGKAREWVAVITWGDSTQYGDSVKGRFTISRDNAKNTVYLQMNSLKPEDTAVYYCAADVRQGYSSWGQGTQVTVSS
notes: Form: Dimer
B9: PP915 MBP-5HVZ-S3b-A7-H6 (VHH)
VHH: QVQLVESGGGLVQPGGSLRLSCAASGSIASINAIHWVRQAPGKQREEVAAITSGGSTGYADSVKGRFTISRDNAKNTVYLQMNSLKPEDTAVYYCAAQPGQSYAVWGQGTQVTVSS
notes: Form: Dimer
B10: PP927 MBP-5HVZ-R1i-C8-H6 (VHH)
VHH: QVQLVESGGGLVQPGGSLRLSCAASGRQFGAWRMHWYRQAPGKQREWVAGITSGTSGNYADSVKGRFTISRDNAKNTVYLQMNSLKPEDTAVYYCAATSHTTYHAEYWGQGTQVTVSS
notes: Form: Dimer
B11: PP930 MBP-5HVZ-R2b-D4-H6 (VHH)
VHH: QVQLVESGGGLVQPGGSLRLSCAASGSYASIASMHWFRQAPGKQREFVAGLTSGGSRIYGDSVKGRFTISRDNAKNTVYLQMNSLKPEDTAVYYCTALILHYAGMYDYWGQGTQVTVSS
notes: Form: Dimer
B12: PP931 MBP-5HVZ-R5a-F5-H6 (VHH)
VHH: QVQLVESGGGLVQPGGSLRLSCAASGYHASILAMHWVRQAPGKEREWVASMTWSDMTQYSDSVKGRFTISRDNAKNTVYLQMNSLKPEDTAVYYCAATYVTRDRPWTHWGQGTQVTVSS
notes: Form: Dimer
B13: PP1094 MBP-5HVZ-PAPA-RN-1-H6 (VHH)
VHH: QVQLVESGGGLVQPGGSLRLSCAASGYIFEGGPTAWFRQAPGKGREFVAAITTSGETSYAYSVKGRFTISRDNAKNTVYLQMNSLKPEDTAVYYCNATDRDETGYDYWGQGTQVTVSS
B14: PP1095 MBP-5HVZ-PAPA-RN-2-H6 (VHH)
VHH: QVQLVESGGGLVQPGGSLRLSCAASGSYFSKNAVHWYRQAPGKGREWVAALTNSGSGNYKDSVKGRFTISRDNAKNTVYLQMNSLKPEDTAVYYCTANISESTGQGYDYWGQGTQVTVSS
B15: PP1098 MBP-5HVZ-PAPA-RN-9-H6 (VHH)
VHH: QVQLVESGGGLVQPGGSLRLSCAASGLRFAMTEMAWFRQAPGKQREFVALITEGGSGSYGDSVKGRFTISRDNAKNTVYLQMNSLKPEDTAVYYCAALHYTEGANTESATTFDYWGQGTQVTVSS
B16: PP1099 MBP-5HVZ-PAPA-RN-12-H6 (VHH)
VHH: QVQLVESGGGLVQPGGSLRLSCAASGSSFEGNAVHWFRQAPGKNREFVATITTSTSYYYADSVKGRFTISRDNAKNTVYLQMNSLKPEDTAVYYCAARLKDRGPQSEYDYWGQGTQVTVSS
notes: Form: Dimer
B17: PP1101 MBP-5HVZ-PAPA-RN-16-H6 (VHH)
VHH: QVQLVESGGGLVQPGGSLRLSCAASGADFSSNAMHWFRQAPGKAREFVASIDSDKSGYYADSVKGRFTISRDNAKNTVYLQMNSLKPEDTAVYYCNAYSGTDNYGYDYWGQGTQVTVSS
notes: Form: Dimer
B18: PP909 MBP-5HVZ-S2b-A7-H6 (VHH)
VHH: QVQLVESGGGLVQPGGSLRLSCAASGSSDSWNALHWFRQAPGKEREFVAGISSAGSGYYADSVKGRFTISRDNAKNTVYLQMNSLKPEDTAVYYCNGYEHTTGYDYWGQGTQVTVSS
notes: Form: Dimer
B19: PP933 MBP-5HVZ-R5e-C1-H6 (VHH)
VHH: QVQLVESGGGLVQPGGSLRLSCAASGSIPYVQAMSWFRQAPGKGREGVASIGWGGGTYYADSVKGRFTISRDNAKNTVYLQMNSLKPEDTAVYYCAAKFRENFSFYDYWGQGTQVTVSS
notes: Form: Dimer

Experiments:
[1] = biological target: T1, SARS-CoV-2 Beta Variant RBD (SARS-CoV-2 Beta variant); test: ELISA, RBD coated
T1 construct: domain: RBD; coated on ELISA plates

[2] = biological target: T2, SARS-CoV-2 Alpha Variant RBD (SARS-CoV-2 Alpha variant); test: ELISA, RBD coated
T2 construct: domain: RBD; coated on ELISA plates

[3] = biological target: T3, SARS-CoV-2 Gamma Variant RBD (SARS-CoV-2 Gamma variant); test: ELISA, RBD coated
T3 construct: domain: RBD; coated on ELISA plates

[4] = biological target: T4, SARS-CoV-2 Delta Variant RBD (SARS-CoV-2 Delta variant); test: ELISA, RBD coated
T4 construct: domain: RBD; coated on ELISA plates

[5] = biological target: T5, SARS-CoV-2 spike protein on pseudotyped lentivirus (Wuhan Reference Pseudovirus) (SARS-CoV-2, UniProt P0DTC2 14-1273); test: cell-based or functional assay
[6] = biological target: T5, SARS-CoV-2 spike protein on pseudotyped …; test: cell-based or functional assay; remark: listed apart in the source

Row | Binder | EC50 [1] [nM] | EC50 [2] [nM] | EC50 [3] [nM] | EC50 [4] [nM] | infectivity % under 10 ug/mL VHH treatment [5] [%] | Pseudovirus neutralization IC50 [6] [nM]
1 | B1 | 17.1 | 1.12 | 11 | 115 | 88 | 
2 | B2 | 17 | 4.98 | 8.98 | 407 | 57.9 | 
3 | B3 | 1.57 | 0.31 | 1.6 | 231 | 68.3 | 
4 | B4 | 4.77 | 1.76 | 3.01 | 15.1 | 70.4 | 
5 | B5 |  | 0.27 |  | 2.67 | 58.4 | 
6 | B6 |  |  |  |  | 4.22 | 2.41
7 | B7 | 988 | 1.97 | 378 | 205 | 69.6 | 
8 | B8 | 365 | 1.96 | 177 | 622 | 73.2 | 
9 | B9 |  | 0.52 |  | 37.8 | 90.5 | 
10 | B10 |  | 2.22 |  | 94.2 | 45.4 | 
11 | B11 | 13 | 3.9 | 10.2 | 21.1 | 35.6 | 
12 | B12 | 134 | 2.07 | 110 | 127 | 57.5 | 
13 | B13 | 315 | 0.89 | 160 | 49.9 | 83.4 | 
14 | B14 | 193 | 1.18 | 90.9 | 16.9 | 76.8 | 
15 | B15 | 24.8 | 0.97 | 11.2 |  | 58.3 | 
16 | B16 | 194 | 4.95 | 160 |  | 70.6 | 
17 | B17 | 115 | 1.77 | 51.5 | 42.6 | 91.8 | 
18 | B18 | 8.1 | 0.44 | 5.37 | 81.4 |  | 
19 | B19 | 10.2 | 9.74 | 9.73 | 8.87 |  | 

— patent US20240150440A1 (LUMEN BIOSCIENCE, published 2024)
